This is an account of results in paper PMC8377056.

In assay [1] the target is His-tagged recombinant mouse LDLR (mouse) (UniProt P35951). Kind of assay: SPR; His-tagged LDLR immobilised on a NiHC1000m sensor chip; VH4127 (10-160 nM) or Fc(A680)-VH4127 (1-16 nM) injected, single-cycle kinetics; 1:1 Langmuir model; Biacore T200.
Assay [2] deals with His-tagged recombinant human LDLR (human) (UniProt P01130). Kind of assay: SPR; His-tagged mouse or human LDLR immobilised on a NiHC1000m sensor chip; VH4127 (10-160 nM) or Fc(A680)-VH4127 (1-16 nM) injected, single-cycle kinetics; double-subtracted sensorgrams fitted globally with the 1:1 Langmuir model (Biacore T200).
In assay [3] the target is His-tagged recombinant mouse LDLR (mouse) (UniProt P35951). Kind of assay: SPR; His-tagged LDLR immobilised on a NiHC1000m sensor chip; VH4127 (10-160 nM) injected, single-cycle kinetic method; double-subtracted sensorgrams fitted globally with the 1:1 Langmuir model (Biacore T200).
Assay [4] has as its target His-tagged recombinant human LDLR (human) (UniProt P01130). The description is as above.

Values joined by “and” are separate entries in the source; they are usually repeats but may differ in a detail not shown here. Equal values may be shown once.

Chain of His-tagged recombinant mouse LDLR (mouse) (P35951 22-790): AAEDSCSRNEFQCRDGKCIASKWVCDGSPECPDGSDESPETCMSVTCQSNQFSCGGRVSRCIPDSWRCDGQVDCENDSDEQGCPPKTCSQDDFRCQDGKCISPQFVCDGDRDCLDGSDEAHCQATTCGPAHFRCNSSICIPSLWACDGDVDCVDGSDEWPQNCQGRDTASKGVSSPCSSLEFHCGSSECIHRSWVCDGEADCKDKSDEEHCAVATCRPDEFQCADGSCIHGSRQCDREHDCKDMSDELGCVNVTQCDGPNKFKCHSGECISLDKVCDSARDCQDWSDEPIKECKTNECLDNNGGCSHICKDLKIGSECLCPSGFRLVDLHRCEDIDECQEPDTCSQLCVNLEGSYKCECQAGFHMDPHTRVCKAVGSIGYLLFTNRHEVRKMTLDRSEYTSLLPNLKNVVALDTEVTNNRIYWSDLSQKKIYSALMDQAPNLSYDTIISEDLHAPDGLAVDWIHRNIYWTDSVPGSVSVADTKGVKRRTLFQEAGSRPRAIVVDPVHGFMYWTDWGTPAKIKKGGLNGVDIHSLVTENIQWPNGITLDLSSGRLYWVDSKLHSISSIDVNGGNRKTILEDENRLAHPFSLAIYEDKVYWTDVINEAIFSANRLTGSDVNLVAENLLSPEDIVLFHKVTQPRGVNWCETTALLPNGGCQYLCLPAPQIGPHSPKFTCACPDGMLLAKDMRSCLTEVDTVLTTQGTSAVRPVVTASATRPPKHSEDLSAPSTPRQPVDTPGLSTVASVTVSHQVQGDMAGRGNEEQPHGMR
Chain of His-tagged recombinant human LDLR (human) (P01130 22-788): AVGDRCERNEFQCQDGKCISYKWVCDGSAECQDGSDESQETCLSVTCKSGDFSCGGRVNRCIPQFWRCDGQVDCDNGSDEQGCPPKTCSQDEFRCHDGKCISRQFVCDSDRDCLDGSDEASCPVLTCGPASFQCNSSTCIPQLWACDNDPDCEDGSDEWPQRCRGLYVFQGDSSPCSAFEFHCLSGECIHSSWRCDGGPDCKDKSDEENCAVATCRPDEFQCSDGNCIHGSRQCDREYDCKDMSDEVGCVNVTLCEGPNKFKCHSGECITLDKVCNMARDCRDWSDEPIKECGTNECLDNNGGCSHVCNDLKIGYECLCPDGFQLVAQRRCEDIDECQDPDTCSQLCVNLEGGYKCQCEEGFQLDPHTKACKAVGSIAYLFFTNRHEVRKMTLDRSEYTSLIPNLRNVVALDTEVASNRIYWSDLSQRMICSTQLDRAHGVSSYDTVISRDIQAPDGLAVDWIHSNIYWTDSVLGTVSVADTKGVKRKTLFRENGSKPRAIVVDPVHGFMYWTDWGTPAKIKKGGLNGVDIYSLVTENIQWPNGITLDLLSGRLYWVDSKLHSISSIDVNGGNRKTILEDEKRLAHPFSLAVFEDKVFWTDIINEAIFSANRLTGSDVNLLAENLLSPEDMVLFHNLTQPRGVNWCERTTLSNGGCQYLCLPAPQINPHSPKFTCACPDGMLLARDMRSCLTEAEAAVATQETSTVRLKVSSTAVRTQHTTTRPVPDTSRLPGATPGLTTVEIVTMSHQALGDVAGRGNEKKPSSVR

With Fc(A680)-VH4127 conjugate (Fc fusion), in assay [1], the Kd worked out at 0.0918 nM.

For VH4127 peptide, in assay [2], the Kd was 21.5 nM and 20 nM and 23.2 nM. The figures for the koff in assay [3] and in assay [4] were 0.0821 s⁻¹ and 0.0894 s⁻¹, respectively. For the same substance, the figures for the kon in assay [3] and in assay [4] were 1.66e+06 M⁻¹ s⁻¹ and 4.06e+06 M⁻¹ s⁻¹, respectively.
